Measurements reported in patent US20260265381A1.

Key:
[1] = molecular target: human HLA-G expressed on cells (JEG3 cells, natural; SKOV3 cells transfected with recombinant HLA-G) (human) (UniProt P17693); test: flow cytometry on JEG3 cells (natural HLA-G); isotype control; detection with goat anti-human IgG (H+L) Alexa 488
[2] = molecular target: human HLA-G expressed on cells (JEG3 cells, natural; SKOV3 cells transfected with recombinant HLA-G) (human) (UniProt P17693); test: flow cytometry on SKOV3 HLA-G cells (SKOV3 transfected with HLA-G); isotype control; detection with goat anti-human IgG (H+L) Alexa 488

## Isotype (antibody)
[1]
  MFI: 57
[2]
  MFI: 78
